Measured values taken from patent publication US10017560.

Experiments:
[1] = target: Tomato Leaf Curl Sudan Virus (ToLCSDV) purified viral particles (Tomato Leaf Curl Sudan Virus); assay: SPR single-cycle kinetics, ToLCSDV captured at 310 RU
[2] = target: Tomato Leaf Curl Sudan Virus (ToLCSDV) purified viral particles (Tomato Leaf Curl Sudan Virus)
[3] = target: Tomato Leaf Curl Sudan Virus (ToLCSDV) purified viral particles (Tomato Leaf Curl Sudan Virus); assay: SPR single-cycle kinetics, ToLCSDV captured at 405 RU
[4] = target: Tomato Leaf Curl Sudan Virus (ToLCSDV) purified viral particles (Tomato Leaf Curl Sudan Virus); assay: SPR single-cycle kinetics, ToLCSDV captured at 185 RU

B1: Nb-To2 (VHH)
VHH: QVQLQESGGGSVQAGGSLRLSCVASGDTLRLCRMGWYRQAPGKGRELVSSMEIDGTTNYADSVKGRFTISQGDNRNTMYLQMNSLKPEDTAMYYCKMEGGYGGNCRLAIYNYWGQGTQVTVSS
Kd [1]: 0.374 nM
koff [1]: 0.00151 s⁻¹
kon [1]: 4.05e+06 M⁻¹ s⁻¹
A1 (% ToLCSDV Binding) [2]: -0.842
A2 (% ToLCSDV Binding) [2]: 101
EC20 (dilution of the NbTo2 sample) [2]: 0.00459
EC80 (dilution of the NbTo2 sample) [2]: 0.000613
LOGx0 (log(dilution NbTo2)) [2]: -2.78
p [2]: -1.38
span (% ToLCSDV Binding) [2]: 102
Kd [3]: 0.432 nM
koff [3]: 0.00161 s⁻¹
kon [3]: 3.72e+06 M⁻¹ s⁻¹
Kd [4]: 0.292 nM
koff [4]: 0.00135 s⁻¹
kon [4]: 4.65e+06 M⁻¹ s⁻¹
